Test results published in doi:10.1101/2024.02.23.581811 (bioRxiv, 2024).
Numbering of substitutions follows the chain as printed.

Molecular target: β2-adrenergic receptor (Homo sapiens (Human)., UniProt P07550)
Test: linear dichroism

B1: NB80-eGFP-HRas (VHH)
VHH: QVQLQESGGGLVQAGGSLRLSCAASGSIFSINTMGWYRQAPGKQRELVAAIHSGGSTNYANSVKGRFTISRDNAANTVYLQMNSLKPEDTAVYYCNVKDYGAVLYEYDYWGQGTQVTVSS
B1: binds.

B2: NB80Lite-eGFP-HRas (VHH)
VHH: B1 VHH with H52S, S56G, T57S, N58A
B2: binds.
